The source of these data is patent US20220169722A1 (WUXI BIOLOGICS IRELAND, published 2022).

Assay [1] has as its target T1, mouse LAG-3 on transfected cells (mouse, UniProt Q61790 24-521).
T1 construct: whole, on cells; Flp-In-CHO cells transfected with mouse LAG-3; also called cell surface mouse LAG-3; murine LAG-3
T1 sequence (looked up): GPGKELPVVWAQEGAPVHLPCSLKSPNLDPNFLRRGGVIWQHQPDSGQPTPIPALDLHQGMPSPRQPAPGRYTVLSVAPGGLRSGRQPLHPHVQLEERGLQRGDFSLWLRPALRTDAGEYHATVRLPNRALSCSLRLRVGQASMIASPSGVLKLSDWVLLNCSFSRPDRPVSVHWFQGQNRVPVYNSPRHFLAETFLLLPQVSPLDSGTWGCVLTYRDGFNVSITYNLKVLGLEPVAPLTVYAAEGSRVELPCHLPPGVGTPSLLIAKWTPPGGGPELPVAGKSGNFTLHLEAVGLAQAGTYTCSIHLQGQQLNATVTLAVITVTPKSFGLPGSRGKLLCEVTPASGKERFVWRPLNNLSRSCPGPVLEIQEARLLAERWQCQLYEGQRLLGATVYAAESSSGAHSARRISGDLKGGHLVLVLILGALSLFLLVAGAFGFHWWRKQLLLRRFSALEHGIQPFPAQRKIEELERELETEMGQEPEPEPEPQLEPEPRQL
As to the kind of experiment: FACS on mouse LAG-3 transfected cells. As for the experimental part:
Similarly, cross-reactivity to cynomolgus or murine LAG-3 was tested by FACS with cyno or murine LAG-3 transfected cell lines.

The target in assay [2] is T2, human LAG-3 on transfected cells (human, UniProt P18627 23-525).
T2 construct: whole, on cells; Flp-In-293 or CHO-K1 cells transfected with full length human LAG-3; also called cell surface human LAG-3
T2 sequence (looked up): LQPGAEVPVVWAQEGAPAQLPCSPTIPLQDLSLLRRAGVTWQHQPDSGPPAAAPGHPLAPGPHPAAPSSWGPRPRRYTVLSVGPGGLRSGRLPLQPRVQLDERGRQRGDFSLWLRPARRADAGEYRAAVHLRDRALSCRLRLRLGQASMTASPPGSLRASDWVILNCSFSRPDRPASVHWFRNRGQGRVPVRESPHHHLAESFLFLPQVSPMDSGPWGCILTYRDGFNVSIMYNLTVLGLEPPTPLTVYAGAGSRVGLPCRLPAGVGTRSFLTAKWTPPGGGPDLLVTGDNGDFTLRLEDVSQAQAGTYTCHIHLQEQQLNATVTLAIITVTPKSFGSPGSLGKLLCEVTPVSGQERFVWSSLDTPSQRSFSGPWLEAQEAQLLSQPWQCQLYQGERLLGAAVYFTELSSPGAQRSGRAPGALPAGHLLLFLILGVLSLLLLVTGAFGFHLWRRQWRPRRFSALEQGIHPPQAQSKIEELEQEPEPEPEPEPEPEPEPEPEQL
Kind of assay: FACS affinity on transfected cells.

The target in assay [3] is T3, cynomolgus LAG-3 on transfected cells (cynomolgus monkey).
T3 construct: whole, on cells; 293F cells transfected with cynomolgus LAG-3; also called cell surface cynomolgus LAG-3; monkey LAG-3
As to the kind of experiment: FACS affinity on transfected cells.

Assay [4] has as its target T4, human LAG-3 protein (SPR analyte) (human, UniProt P18627 23-450).
T4 construct: extracellular domain
T4 sequence (looked up): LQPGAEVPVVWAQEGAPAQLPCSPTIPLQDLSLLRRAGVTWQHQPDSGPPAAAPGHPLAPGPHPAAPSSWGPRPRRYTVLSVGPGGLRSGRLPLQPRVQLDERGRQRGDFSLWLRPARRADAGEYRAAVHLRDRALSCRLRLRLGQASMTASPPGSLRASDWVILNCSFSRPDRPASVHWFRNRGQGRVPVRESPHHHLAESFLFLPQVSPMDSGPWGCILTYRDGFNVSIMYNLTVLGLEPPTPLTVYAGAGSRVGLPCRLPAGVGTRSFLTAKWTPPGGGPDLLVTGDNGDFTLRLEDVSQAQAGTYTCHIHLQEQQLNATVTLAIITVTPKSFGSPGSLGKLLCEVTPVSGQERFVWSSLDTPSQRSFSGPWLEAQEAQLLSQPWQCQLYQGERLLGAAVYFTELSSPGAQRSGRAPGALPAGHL
As to the kind of experiment: SPR Biacore 8K, Ab as ligand, LAG-3 as analyte. (In SPR one partner is held on a chip, and binding of the other changes the refractive index at the surface.)

Assay [5] addresses T5, mouse LAG-3 protein (SPR analyte) (mouse, UniProt Q61790 24-442).
T5 construct: extracellular domain
T5 sequence (looked up): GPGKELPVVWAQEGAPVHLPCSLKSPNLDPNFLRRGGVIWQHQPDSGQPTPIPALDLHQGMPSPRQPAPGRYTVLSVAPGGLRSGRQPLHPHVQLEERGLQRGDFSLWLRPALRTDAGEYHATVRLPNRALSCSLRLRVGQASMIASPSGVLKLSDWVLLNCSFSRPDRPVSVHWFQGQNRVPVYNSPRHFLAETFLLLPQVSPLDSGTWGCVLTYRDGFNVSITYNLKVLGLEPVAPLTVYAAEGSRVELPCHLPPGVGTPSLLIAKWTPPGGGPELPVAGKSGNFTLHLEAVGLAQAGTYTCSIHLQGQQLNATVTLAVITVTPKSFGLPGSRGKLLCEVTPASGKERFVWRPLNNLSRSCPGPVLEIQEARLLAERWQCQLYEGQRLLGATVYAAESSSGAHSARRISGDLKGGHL
As to the kind of experiment: SPR Biacore 8K, Ab as ligand, LAG-3 as analyte.

A further assay has as its target human CD4 (human, UniProt P01730 26-390, limits assumed). Kind of assay: ELISA, plates coated with human CD4, goat anti-human IgG Fc-HRP. As for the experimental part: Cross-reactivity to human CD4 was measured by ELISA. Plates were coated with human CD4 at 1 μg/ml overnight at 4° C. After blocking and washing, 1 μg/ml of LAG-3 antibodies were added to the plates and incubated at room temperature for 1 h. The plates were then washed and subsequently incubated with goat-anti human IgG Fc-HRP for 45 min. After washing, TMB substrate was added and the color reaction was stopped by 2M HCl. The absorbance at 450 nm was read using a microplate reader.
For orientation: In an ELISA, binding on a coated surface is turned into a signal by an enzyme label.

Assay [6] concerns the target T2, human LAG-3 on transfected cells. Kind of assay: FACS, serial dilutions on human LAG-3 transfected cells, PE-labeled secondary antibody.
For assay [7], the target named is T6, mouse Fc (mFc)-tagged human LAG-3 (human, UniProt P18627 23-450).
T6 construct: extracellular domain
T6 sequence (looked up): T4 sequence (looked up)
As to the kind of experiment: ELISA blocking: antibody pre-mixed with mFc-tagged human LAG-3, added to plates coated with human LSECtin (blocked ligand); detection goat anti-mouse IgG Fc-HRP. As for the experimental part: (§1) 96-well plates were coated with human LSECtin or Galectin-3 at 0.5 μg/ml overnight at 4° C., respectively. […] After blocking and washing, the mixture was transferred to the plates and incubated at room temperature for 1 h. The plates were then washed and subsequently incubated with the secondary antibody goat-anti Mouse IgG Fc-HRP for 1 h. After washing, TMB substrate was added and the color reaction was stopped by 2M HCl. The absorbance at 450 nm was read using a microplate reader.

The target of assay [8] is T6, mouse Fc (mFc)-tagged human LAG-3. As to the kind of experiment: ELISA blocking: antibody pre-mixed with mFc-tagged human LAG-3, added to plates coated with human Galectin-3 (blocked ligand); detection goat anti-mouse IgG Fc-HRP. As to the method:
as §1

B1: W3396-R2-2 (Fc fusion)
VHH: QVQLVESGGGVVQPGGSLRLSCAASGLTLSQYTMGWFRQAPGKERELVAAIHWTSSVTDYADSVYGRFTISRDDSKNTGYLQMNSLRAEDTAVYYCAATHYYTHRGPFDYWGQGTLVTVSS
Take B1: the half-maximal effective concentration (EC50) (in general, the concentration needed to bring the measured effect to its halfway point) in assay [1] amounted to 0.13 nM; in assay [6], 0.228 nM. Also, the equilibrium dissociation constant (Kd) (commonly the constant that tells how readily two partners part at equilibrium) in [2] was 0.46 nM; in [4], 0.165 nM; in [5] it was less than 0.575 pM. In [3], this molecule registered a Bmax of 300 pM. Also, the binding result with human CD4 is listed as “no binding (tested: 33.4 nM)”. Besides, the concentration for half-maximal inhibition (IC50) – broadly, the midpoint of a concentration-inhibition curve – worked out at 1.61 nM in [7] and 1.23 nM in [8].
